T1: H-2K^b molecules on RMA-S cells (mouse, UniProt P01901 22-369; P01887 21-119)
T1 construct: whole, on cells
T1 sequence (MHC heavy): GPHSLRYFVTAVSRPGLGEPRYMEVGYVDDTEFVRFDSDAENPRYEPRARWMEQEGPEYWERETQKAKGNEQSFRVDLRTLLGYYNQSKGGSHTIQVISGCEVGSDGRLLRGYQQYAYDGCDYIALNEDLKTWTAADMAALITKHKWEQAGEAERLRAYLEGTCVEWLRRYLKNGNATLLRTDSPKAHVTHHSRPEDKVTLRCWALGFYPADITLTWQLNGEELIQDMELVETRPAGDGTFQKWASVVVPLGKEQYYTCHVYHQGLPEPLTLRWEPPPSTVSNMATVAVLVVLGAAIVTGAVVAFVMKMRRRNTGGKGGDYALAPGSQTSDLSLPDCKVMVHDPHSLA
T1 sequence: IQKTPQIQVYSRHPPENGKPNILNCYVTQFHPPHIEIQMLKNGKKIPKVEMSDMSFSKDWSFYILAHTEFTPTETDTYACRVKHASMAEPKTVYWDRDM

T2: H-2D^b molecules on RMA-S cells (mouse, UniProt P01899 25-362; P01887 21-119)
T2 construct: whole, on cells; also called MHC class I
T2 sequence (MHC heavy, looked up): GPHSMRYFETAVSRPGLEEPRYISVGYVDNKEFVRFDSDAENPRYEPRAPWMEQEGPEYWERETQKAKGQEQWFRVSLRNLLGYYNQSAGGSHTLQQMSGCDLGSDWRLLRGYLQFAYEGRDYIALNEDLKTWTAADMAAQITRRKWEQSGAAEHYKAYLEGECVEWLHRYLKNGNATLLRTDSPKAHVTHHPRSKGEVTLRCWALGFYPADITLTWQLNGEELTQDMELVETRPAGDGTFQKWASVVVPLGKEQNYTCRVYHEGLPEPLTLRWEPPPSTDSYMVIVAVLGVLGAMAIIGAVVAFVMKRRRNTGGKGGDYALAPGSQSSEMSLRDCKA
T2 sequence (looked up): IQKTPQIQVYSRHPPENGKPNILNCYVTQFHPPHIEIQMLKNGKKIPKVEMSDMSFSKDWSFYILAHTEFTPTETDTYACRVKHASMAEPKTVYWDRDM


Tests used:
[1] = molecular target: T1, H-2K^b molecules on RMA-S cells; assay: RMA-S MHC class I stabilisation assay, flow cytometry with anti-H-2K^b antibody
[2] = molecular target: T2, H-2D^b molecules on RMA-S cells; assay: RMA-S MHC class I stabilisation assay, 10 µM peptide, flow cytometry with anti-H-2D^b antibody, medium control
Experimental: We evaluated the MHC class I binding affinity of native and KSS-elongated E7 peptides. RMA-S cells, a mouse lymphoma cell line at a concentration of 5×10⁵ cells/ml were incubated overnight at 27° C. with native E7 or KSS-E7 peptide (10 μM). Cells incubated with medium were used as a control. Cells were then incubated for 2 h at 37° C. After washes, cells were stained with fluorescently conjugated monoclonal antibodies against H-2D^b or H-2K^b molecules on the cell surface prior to flow cytometry analysis.

| Binder | binding result [1] | fold up-regulation of H-2D^b molecules on RMA-S cells compared to the control [2] | fold increase in the mean fluorescence (H-2D^b on RMA-S cells) [2] |
| --- | --- | --- | --- |
| RAHYNIVTF (Synthetic free peptide, added at 10 uM to RMA-S cells; also called E7 antigen) [native E7 peptide (HPV 16 E7 protein, amino acid 49-57, H-2D^b restricted CTL epitope)] | no binding (tested: 10 µM) | 4 fold | – |
| KSSRAHYNIVTF (Not lipidated; added at 10 uM to RMA-S cells; also called KSS-elongated E7 peptide) [KSS-E7 peptide (KSS (lysine-serine-serine)-elongated E7 peptide without the lipid chain)] | no binding (tested: 10 µM) | – | 8 fold |
